Assay: label from the status in PepcDB records

| Sequence | protein production |
| --- | --- |
| MVLETPVCSPIDKESSSDDVQLNKPPKKKRKLDVVYPPRDNTSSSSDVKPKVPGYCGVKAIGCNRSDELLAEVALHSYNSQTGTNLELMTVTQVMLQSVAHINYHMILDAFDPANNSLSSIEICLWDAAVKNNEKLRLVTTFCSLEGSGDKGSQWDPNGVDVLYTGVMPKWLDDGALSGSEKLHYYEVNDSDLQENKWLHLYAQVGAYSKWDLGMVKHFPLEIKKVVVQTMEDDIESNLKLKSSNAIFYITFTTSGGVECACIIRQTRNGRPQHMCLEINNVEMDK | failed |
| MKVLAVAYDPRDFGELATGVRDSLGDAELVFLAVHKAAEEPGKASGYSEKVFVSRTSSPESIALLLEKLISEEKPDIIVGEAYKNLRDALSRVAGKLDLPMATDVSSFSVENGKVKFRKGFLSEKAVMEAEIPKPAVILFLTRFTKPKEISPESQARIVELEPPQGETKVVETRPKEMGGANLEEAEIIVGVGRGFKSKEDLKLAFELAELLNAQIGCTRPIAADLKWLSEDHWIGISGKRVAPKLYLAIGISGSPQHMSGVQNAKIIVAVNKDKNAPIFKQADYGVVADLYQFIPVLIKKLRERKSN | failed |
| MQREKTQTNLRLDEGGGSVWQKCSRHEGRFVCVAGVCPYCLHERLSSLCPDCAHDLPCSCTPRASVSSRGEGDVSFARIGSVGRVANLIECEPAFRRSTSITGPYFWSAKPEPILETEKDLKPGRGRWLWRLFRGNREEETKIKAAKVMKKSNSVAGEVLFSPTPVTSKGNGWYFPSPIKVFRQSRVSKMIFQQRSPLYRG | failed |
| MIKPSNYQPPYTITPAIVNLVAEIGEIIGRYTVLAEQNLTPRLRRENRIRTIQASLAIENNTLTLEQVTAVIDGKRVLGHPREIQEVRNAFATYEAMEDWDASVEGDLLAAHELLMRGLVDETGRYRSGGVGIFRGEQLVHMAPPADRVPKLMADLLDWLENTNEHPLVASCIFHYEFEFIHPFADGNGRMGRLWQTLILRNWKPLLAYLPVETVIRDRQEDYYRVLAVADSQADATPFVEFMLGALRDAVREAVSTDHVGDQVTDQVAALIRAIGGGELSSNDLMQALGLSHRPTFRNNYLNPAMEDEWIERTQPDSPRSPTQRYRLTGKGQRWLQHHADE | not failed |
| MRKGQETRERVVAQAAALFNVSGYAGTAISDIMAATGLEKGGIYRHFESKEQLALAAFDYAAEKVRERFAVGLAGHKHTVDTIIAFLDVFRSYAERPPLVGGCPILNTAIESDDTNPMLRERVRAVIDEWRETIRTLVQTGIARGEIRPEVDADRLALLIIATMEGAVMLARILETATPLEHAYTHLATYITQQVRLA | not failed |
| MLKPVALLTPRPSPSRDPAIPDWLLAGKLEPALPRPAAVVRGALLAALDQAQARPLTLLLAPPGFGKTTLLAQWHAHLSTREQGPVAWLSLDEEDADAARFLGHLALALQNAGADHALCATVLHNRDHDPRDATALLIRALRAAPRRISVILDDYDRLGSSPVDELVLRLIEHSGGRLHLVLATRRVPNLPLARLDLHAQLSRIGSTQLALDNTEAQALLGPHVPTPVVDELRNYTEGWPVALQLARLWLQGDTQRQQEVAARFSGRSAQIAAYLAEQVVNDLDPDTRELLLRTSPLERFNAALADAVRQREDSGRLLARLEHFHGLLVPLDGEREWFRYHPLFADFLQQLLDREHPGQSVQLHQRAARWFGDHQHLAEAVRHAWRGNCGELAASYIARAGTWQLLLTHGTHEVRALLRHFDHRTIRDTPALNLTQAHLHIRLGEFSHARLLLERFRDFPAALREPLQRDYTVVVALLRDRLDEICGNPHGLTQIAAQAGALDEDDHLGRGMLLCICATTAIAQGAFAVAERYARNARDTMQRGGSDVGASQAMLSLGQSLFYRGRLSDAEACYQQALSWCARTPQLDRVLEAAAQCLLAQSHYERGHHDDAADLLHPALELLEQHDGGMDVLAAGYGTALGLERVRDHSGRSALLLLEHIEQIAHGRKLARLSELAAAWRLMLLLEHPGNAAIDVLIARTGGESGLAHTLRSPHRWHDRAAMGFALARWHRLAGRSSAALSILGQIEQACLANDNVCHLARTRARIALVLQQRGELVAALPYLYSALDHVALTQSWQAIVELGLPAKAMLRSLRQHDPQTVGGTTRALTIQALLERLSGDDDPAGDIFSERELEVLAQLARGYSNKQIARCLHLSENTVKFHLKNLYRKLDARSREGALAQALQRGLLRGSNQHADQPLQPD | failed |
| MYIPNAFRESDTHNLQEHMDKTRLAILVTQGDDGLHATHLPLLLRSDEGPYGTLYGHMAKANPQWQQLNADAEAMVIFPGEDAYVSPSFYPSKAEHGKVVPTWNYLAVHAYGQAECFTDPDRLHQLLNDLTDRHESSRAQPWSINDAPADYIAKMLGAIVGFSIPVQRL | failed |

Source: a protein production outcome set (Wang et al. 2014)
